T1: Ca2+-depleted α-lactalbumin (UniProt P00711 20-142)
T1 sequence (looked up): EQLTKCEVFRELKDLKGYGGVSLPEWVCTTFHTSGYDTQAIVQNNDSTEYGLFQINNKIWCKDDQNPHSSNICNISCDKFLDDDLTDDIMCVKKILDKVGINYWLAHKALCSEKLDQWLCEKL

B1: Human full-length untagged HSPB5 (αB-crystallin) (natural protein, UniProt P02511 1-175, looked up)
chain: MDIAIHHPWIRRPFFPFHSPSRLFDQFFGEHLLESDLFPTSTSLSPFYLRPPSFLRAPSWFDTGLSEMRLEKDRFSVNLDVKHFSPEELKVKVLGDVIEVHGKHEERQDEHGFISREFHRKYRIPADVDPLTITSSLSSDGVLTVNGPRKQVSGPERTIPITREEKPAVTAAPKK
notes: αB-crystallin (HSPB5), human, full length, untagged; subunit mass 20.2 kDa as printed; Polydisperse oligomer whose size depends on concentration, temperature and crowding; the preparation was a gift of N. Sluchanko; also called the chaperone; source: expressed and purified as described earlier [104]
B2: glycogen phosphorylase b from rabbit skeletal muscles (enzyme, UniProt P00489 1-843, looked up)
chain: MSRPLSDQEKRKQISVRGLAGVENVTELKKNFNRHLHFTLVKDRNVATPRDYYFALAHTVRDHLVGRWIRTQQHYYEKDPKRIYYLSLEFYMGRTLQNTMVNLALENACDEATYQLGLDMEELEEIEEDAGLGNGGLGRLAACFLDSMATLGLAAYGYGIRYEFGIFNQKICGGWQMEEADDWLRYGNPWEKARPEFTLPVHFYGRVEHTSQGAKWVDTQVVLAMPYDTPVPGYRNNVVNTMRLWSAKAPNDFNLKDFNVGGYIQAVLDRNLAENISRVLYPNDNFFEGKELRLKQEYFVVAATLQDIIRRFKSSKFGCRDPVRTNFDAFPDKVAIQLNDTHPSLAIPELMRVLVDLERLDWDKAWEVTVKTCAYTNHTVLPEALERWPVHLLETLLPRHLQIIYEINQRFLNRVAAAFPGDVDRLRRMSLVEEGAVKRINMAHLCIAGSHAVNGVARIHSEILKKTIFKDFYELEPHKFQNKTNGITPRRWLVLCNPGLAEIIAERIGEEYISDLDQLRKLLSYVDDEAFIRDVAKVKQENKLKFAAYLEREYKVHINPNSLFDVQVKRIHEYKRQLLNCLHVITLYNRIKKEPNKFVVPRTVMIGGKAAPGYHMAKMIIKLITAIGDVVNHDPVVGDRLRVIFLENYRVSLAEKVIPAADLSEQISTAGTEASGTGNMKFMLNGALTIGTMDGANVEMAEEAGEENFFIFGMRVEDVDRLDQRGYNAQEYYDRIPELRQIIEQLSSGFFSPKQPDLFKDIVNMLMHHDRFKVFADYEEYVKCQERVSALYKNPREWTRMVIRNIATSGKFSSDRTIAQYAREIWGVEPSRQRLPAPDEKIP
notes: glycogen phosphorylase, muscle form, b form, rabbit; subunit 97.4 kDa as printed; In the assays partially unfolded by heating at 48 °C; also called Phb; muscle glycogen phosphorylase b

Tests used:
[1] = biological target: the molecule itself; assay: AUC; sedimentation velocity, Phb 0.4 mg/mL, HSPB5 0.26 mg/mL and their mixture, Hepes buffer with PEG 20 kDa 25 mg/mL and PVP 25 kDa 12.5 mg/mL (mixed crowding), 48 °C, 48,000 rpm
[2] = biological target: B2; assay: cell-based or functional assay
[3] = biological target: T1, Ca2+-depleted α-lactalbumin; assay: cell-based or functional assay
[4] = biological target: the molecule itself; assay: AUC; sedimentation velocity, Phb 0.5 mg/mL with HSPB5 0, 0.025 or 0.075 mg/mL, 30 mM Hepes, pH 6.8, 0.1 M NaCl, 0.2 mM EDTA, 48 °C, 48,000 rpm; masses by the Svedberg equation with diffusion coefficients from DLS

Row | stoichiometry S0 of the chaperone-target protein complex from suppression of thermal aggregation of Phb at 48 °C (DLS; Kagg/Kagg,0 = 1 − x/S0) [2] | initial stoichiometry S0 of the HSPB5-αLa complexes from suppression of DTT-induced aggregation of αLa at 37 °C (DLS; (Kagg/Kagg,0)^1/b versus [HSPB5]/[αLa]) [3] | Binder | binding result [1] | stoichiometry N [4]
1 | 0.31 HSPB5 subunits per Phb monomer (molar ratio) | 0.011 HSPB5 subunits per αLa molecule (molar ratio) | B1 | binds | –
2 | – | – | B2 | – | 2

From article PMC7404038, “Chaperone-Like Activity of HSPB5: The Effects of Quaternary Structure Dynamics and Crowding” (International Journal of Molecular Sciences, 2020)
